Laboratory results published in patent US20120123096 (published 2012).

Key:
Assay in all cases: ELONA
Conditions in all cases: stem-loop (predicted)
[1] = molecular target: Botulinum neurotoxin type B light chain (UniProt B1INP5 B1INP5:2-441)
[2] = molecular target: Botulinum neurotoxin type B holotoxin (BoNT B HT) (UniProt B1INP5;B1INP5 B1INP5:2-441,B1INP5:442-1291)
[3] = molecular target: Botulinum neurotoxin type A light chain (50 kDa zinc endopeptidase) (UniProt P0DPI1 P0DPI1:2-448)
[4] = molecular target: Botulinum neurotoxin type A holotoxin (BoNT A HT) (UniProt P0DPI1;P0DPI1 P0DPI1:2-448,P0DPI1:449-1296)

Measured: binding result

Chain of Botulinum neurotoxin type B holotoxin (BoNT B HT) (B1INP5 2-441, chain 1 of 2): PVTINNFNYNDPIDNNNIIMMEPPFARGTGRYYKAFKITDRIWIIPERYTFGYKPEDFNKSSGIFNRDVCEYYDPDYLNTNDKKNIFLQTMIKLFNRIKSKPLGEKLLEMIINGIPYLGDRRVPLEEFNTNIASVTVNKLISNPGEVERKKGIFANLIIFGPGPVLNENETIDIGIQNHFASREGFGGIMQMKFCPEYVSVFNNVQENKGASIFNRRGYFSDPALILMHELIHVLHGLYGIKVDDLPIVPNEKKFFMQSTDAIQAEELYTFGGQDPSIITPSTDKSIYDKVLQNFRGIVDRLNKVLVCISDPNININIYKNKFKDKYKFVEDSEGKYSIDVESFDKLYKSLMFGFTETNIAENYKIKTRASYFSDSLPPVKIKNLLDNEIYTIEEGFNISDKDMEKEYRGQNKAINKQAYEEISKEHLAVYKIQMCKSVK
Chain of Botulinum neurotoxin type B holotoxin (BoNT B HT) (B1INP5 442-1291, chain 2 of 2): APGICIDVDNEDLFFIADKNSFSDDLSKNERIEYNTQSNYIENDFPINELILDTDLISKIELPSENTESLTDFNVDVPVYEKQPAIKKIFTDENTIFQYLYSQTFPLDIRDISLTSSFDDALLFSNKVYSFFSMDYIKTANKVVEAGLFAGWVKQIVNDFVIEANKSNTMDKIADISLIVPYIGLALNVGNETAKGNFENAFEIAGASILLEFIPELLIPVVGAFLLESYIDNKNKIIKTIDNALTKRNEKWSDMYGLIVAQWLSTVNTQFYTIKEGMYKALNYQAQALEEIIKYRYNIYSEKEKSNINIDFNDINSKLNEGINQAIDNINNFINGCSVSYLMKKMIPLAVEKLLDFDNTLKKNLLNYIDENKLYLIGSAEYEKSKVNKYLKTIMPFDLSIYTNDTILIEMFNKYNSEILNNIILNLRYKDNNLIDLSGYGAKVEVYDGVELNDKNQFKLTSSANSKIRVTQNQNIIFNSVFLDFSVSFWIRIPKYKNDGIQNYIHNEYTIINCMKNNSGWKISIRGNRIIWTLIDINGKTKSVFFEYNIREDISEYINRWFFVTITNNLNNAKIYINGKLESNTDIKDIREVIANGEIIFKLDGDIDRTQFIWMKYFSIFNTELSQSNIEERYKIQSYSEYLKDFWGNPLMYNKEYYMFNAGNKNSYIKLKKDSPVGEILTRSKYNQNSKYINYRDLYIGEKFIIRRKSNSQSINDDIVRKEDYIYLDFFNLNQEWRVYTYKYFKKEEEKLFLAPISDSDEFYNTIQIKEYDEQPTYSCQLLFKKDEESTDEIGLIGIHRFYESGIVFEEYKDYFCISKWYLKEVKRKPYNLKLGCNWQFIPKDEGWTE
Chain of Botulinum neurotoxin type B light chain (B1INP5 2-441, one chain of several): as the sequence (B1INP5 2-441, chain 1 of 2) above
Chain of Botulinum neurotoxin type A light chain (50 kDa zinc endopeptidase) (P0DPI1 2-448, one chain of several): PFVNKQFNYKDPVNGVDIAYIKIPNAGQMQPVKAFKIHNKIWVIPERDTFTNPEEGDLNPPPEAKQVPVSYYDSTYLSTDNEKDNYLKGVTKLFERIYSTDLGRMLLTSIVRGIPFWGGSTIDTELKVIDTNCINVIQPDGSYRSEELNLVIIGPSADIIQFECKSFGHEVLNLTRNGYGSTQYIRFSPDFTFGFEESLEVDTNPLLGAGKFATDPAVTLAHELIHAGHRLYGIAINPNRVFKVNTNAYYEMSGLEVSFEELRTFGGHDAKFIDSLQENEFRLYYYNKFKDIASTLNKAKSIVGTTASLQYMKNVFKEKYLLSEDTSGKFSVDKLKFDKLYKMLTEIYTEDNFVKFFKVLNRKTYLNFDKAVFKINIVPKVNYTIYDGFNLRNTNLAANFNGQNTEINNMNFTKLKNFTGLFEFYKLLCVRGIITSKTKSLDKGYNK
Chain of Botulinum neurotoxin type A holotoxin (BoNT A HT) (P0DPI1 2-448, chain 1 of 2): as the sequence (P0DPI1 2-448, one chain of several) above
Chain of Botulinum neurotoxin type A holotoxin (BoNT A HT) (P0DPI1 449-1296, chain 2 of 2): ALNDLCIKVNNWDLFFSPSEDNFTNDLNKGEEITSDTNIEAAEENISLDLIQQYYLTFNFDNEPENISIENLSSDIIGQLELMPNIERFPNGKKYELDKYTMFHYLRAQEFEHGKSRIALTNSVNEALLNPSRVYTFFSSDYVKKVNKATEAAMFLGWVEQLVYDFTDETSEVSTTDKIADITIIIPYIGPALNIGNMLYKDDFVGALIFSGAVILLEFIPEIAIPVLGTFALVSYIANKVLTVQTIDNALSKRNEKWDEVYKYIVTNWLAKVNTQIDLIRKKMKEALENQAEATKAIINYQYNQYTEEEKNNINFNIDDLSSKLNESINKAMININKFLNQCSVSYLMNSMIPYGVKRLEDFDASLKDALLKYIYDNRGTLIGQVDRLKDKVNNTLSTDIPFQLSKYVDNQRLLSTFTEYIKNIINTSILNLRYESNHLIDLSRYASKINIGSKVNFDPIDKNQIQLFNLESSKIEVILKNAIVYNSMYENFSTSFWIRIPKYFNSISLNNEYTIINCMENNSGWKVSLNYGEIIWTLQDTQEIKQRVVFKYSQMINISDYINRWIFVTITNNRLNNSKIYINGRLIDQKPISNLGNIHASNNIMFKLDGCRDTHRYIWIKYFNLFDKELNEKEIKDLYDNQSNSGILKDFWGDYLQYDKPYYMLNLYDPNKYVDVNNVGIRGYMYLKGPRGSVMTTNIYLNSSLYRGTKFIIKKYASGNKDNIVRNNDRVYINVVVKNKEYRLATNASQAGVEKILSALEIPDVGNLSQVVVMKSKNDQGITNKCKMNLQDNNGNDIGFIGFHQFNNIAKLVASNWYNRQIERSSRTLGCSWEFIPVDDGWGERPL

B1: BoNT A/B LC aptamer (ssDNA)
DNA: CATCCGTCACACCTGCTCTGATCAGGGAAGACGCCAACACTGGTGTTGGCTCCCGTATCA
binds: all assays above

B2: BoNT A/B HT aptamer (ssDNA)
DNA: CATCCGTCACACCTGCTCTGCTATCACATGCCTGCTGAAGTGGTGTTGGCTCCCGTATCA
binds: all assays above
